In article PMC2259325, “Hepatitis C virus NS5A protein binds the SH3 domain of the Fyn tyrosine kinase with high affinity: mutagenic analysis of residues within the SH3 domain that contribute to the interaction” (Virology Journal, 2008):

Molecular target: T1, NS5A(Δ32), N-terminally truncated hepatitis C virus non-structural 5A protein (hepatitis C virus (genotype 1b, J4 …, UniProt O92972 2005-2419))
T1 construct: source: E. coli BL21 pLysS (DE3), purified (Ni-NTA, gel filtration on Superdex75)
T1 sequence: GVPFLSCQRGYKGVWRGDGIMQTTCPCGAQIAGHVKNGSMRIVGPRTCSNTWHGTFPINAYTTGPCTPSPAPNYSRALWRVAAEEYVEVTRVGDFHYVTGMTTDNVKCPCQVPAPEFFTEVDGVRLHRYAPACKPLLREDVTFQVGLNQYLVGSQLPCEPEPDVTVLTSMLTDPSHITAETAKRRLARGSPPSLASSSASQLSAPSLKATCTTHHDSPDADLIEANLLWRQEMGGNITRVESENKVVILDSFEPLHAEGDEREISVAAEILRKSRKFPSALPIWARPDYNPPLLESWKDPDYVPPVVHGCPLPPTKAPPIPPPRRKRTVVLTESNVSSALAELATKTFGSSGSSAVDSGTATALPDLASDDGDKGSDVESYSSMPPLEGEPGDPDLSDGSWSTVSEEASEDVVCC
Experiment: SPR; Biacore 3000, HBS buffer (10 mM Hepes-NaOH pH 7.4, 150 mM NaCl, 0.005% Tween-20), 25°C; GST-SH3 captured on CM5 chip via amine-coupled anti-GST antibody; NS5A 3 μM - 100 nM flowed over, in triplicate; 1:1 Langmuir fit
Conditions: both partners purified

B1: GST-Fyn SH3 domain fusion protein (wild type) (domain or fragment)
chain: not shown
notes: source: expressed and purified as previously described [6]
koff: 0.00308 s⁻¹ | kon: 4930 M⁻¹ s⁻¹
